Experimental data published in patent US20200284794A1.

Columns and labels:
[1] = biological target: Keratin 17 recombinant protein (human) (UniProt Q04695); test: sandwich ELISA: E3 coated 2 ug/mL, recombinant K17 calibrator 4.1 ng/mL, detection 2D10-HRP 1 ug/mL
[2] = biological target: Keratin 17 in HeLa cells (human) (UniProt Q04695); test: microfluidic cytometry (Moxi Go), methanol-fixed HeLa cells, E3 primary antibody, PE anti-mouse secondary
[3] = biological target: Keratin 17 recombinant protein (human) (UniProt Q04695); test: sandwich ELISA: E3 coated 2 ug/mL, recombinant K17 calibrator 1.4 ng/mL, detection 2D10-HRP 1 ug/mL
[4] = biological target: Keratin 17 recombinant protein (human) (UniProt Q04695); test: sandwich ELISA: E3 capture, 2D10-HRP detection, recombinant K17 calibrators
[5] = biological target: Keratin 17 recombinant protein (human) (UniProt Q04695); test: sandwich ELISA: E3 coated 2 ug/mL, recombinant K17 calibrator 333.3 ng/mL, detection 2D10-HRP 1 ug/mL
[6] = biological target: Keratin 17 recombinant protein (human) (UniProt Q04695); test: sandwich ELISA: E3 coated 2 ug/mL, recombinant K17 calibrator 37.0 ng/mL, detection 2D10-HRP 1 ug/mL
[7] = biological target: Keratin 17 recombinant protein (human) (UniProt Q04695); test: sandwich ELISA: E3 coated 2 ug/mL, recombinant K17 calibrator 1000 ng/mL, detection 2D10-HRP 1 ug/mL
[8] = biological target: Keratin 17 recombinant protein (human) (UniProt Q04695); test: sandwich ELISA: E3 coated 2 ug/mL, recombinant K17 calibrator 12.3 ng/mL, detection 2D10-HRP 1 ug/mL
[9] = biological target: Keratin 17 recombinant protein (human) (UniProt Q04695); test: sandwich ELISA: E3 coated 2 ug/mL, recombinant K17 calibrator 111.1 ng/mL, detection 2D10-HRP 1 ug/mL

mouse monoclonal-[E3] anti-human K17 antibody
OD Avg. (450 nm) [1]: 0.141 OD | OD-1 (450 nm) [1]: 0.142 OD | OD-2 (450 nm) [1]: 0.14 OD | % K17-positive cells [2]: 90.4% | OD Avg. (450 nm) [3]: 0.084 OD | OD-1 (450 nm) [3]: 0.087 OD | OD-2 (450 nm) [3]: 0.081 OD | limit of sensitivity [4]: 1 ng/mL | OD Avg. (450 nm) [5]: 3.59 OD | OD-1 (450 nm) [5]: 3.58 OD | OD-2 (450 nm) [5]: 3.6 OD | OD Avg. (450 nm) [6]: 0.838 OD | OD-1 (450 nm) [6]: 0.844 OD | OD-2 (450 nm) [6]: 0.832 OD | OD Avg. (450 nm) [7]: 3.59 OD | OD-1 (450 nm) [7]: 3.56 OD | OD-2 (450 nm) [7]: 3.62 OD | OD Avg. (450 nm) [8]: 0.321 OD | OD-1 (450 nm) [8]: 0.323 OD | OD-2 (450 nm) [8]: 0.318 OD | OD Avg. (450 nm) [9]: 2.38 OD | OD-1 (450 nm) [9]: 2.47 OD | OD-2 (450 nm) [9]: 2.29 OD
